Data taken from paper PMC13669270, “The isolated HEPN domain of SACSIN exhibits RNA-binding activity”.

T1: HEPN domain of SACSIN (tag removed) (UniProt Q9NZJ4 4441-4579)
T1 sequence: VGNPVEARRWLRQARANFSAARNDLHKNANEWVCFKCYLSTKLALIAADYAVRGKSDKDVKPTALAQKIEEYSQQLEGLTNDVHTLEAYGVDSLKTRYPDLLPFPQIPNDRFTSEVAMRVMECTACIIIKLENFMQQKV


How the values were obtained:
[1] = target: T1, HEPN domain of SACSIN (tag removed); assay: BLI; BLI: 20 mM potassium phosphate pH 7.4, 150 mM KCl, 0.05% Tween-20, 25 C; pull-down: PBS, 2 mM MgCl2, 0.2% NP-40, 0.05% BSA, RNase inhibitor, room temperature; conditions: protein: recombinant; tags: GST removed by thrombin; chain copies: 2; label: 5' biotin; 1 strand; two putative G-quadruplex-forming stretches
[2] = target: T1, HEPN domain of SACSIN (tag removed); assay: BLI; 75 nM to 10 uM protein; BLI: 20 mM potassium phosphate pH 7.4, 150 mM KCl, 0.05% Tween-20, 25 C; pull-down: PBS, 2 mM MgCl2, 0.2% NP-40, 0.05% BSA, RNase inhibitor, room temperature; conditions: protein: recombinant; tags: GST removed by thrombin; chain copies: 2; label: biotin; 1 strand

Binder | Kd [1] [nM] | binding result [2]
CGGGGGCGGCGGCGGCGGCGGCGGCAGCGGGG (ssRNA) [GC-rich RNA 32 nt (predicted HEPN interacting RNA)] | 2600 ± 300 | 
AACCAACUUUCGAUCUCUUGUAGAUCUGUUCU (ssRNA) [non-GC-rich RNA 32 nt] |  | no binding
